The nature of assay [1]: ALP-driven mineralization of adhesive/dentin specimen with HABP1, RAMAN imaging with Divisive Clustering Analysis. Type of assay: biochemical, human. The settings on record: for MNRp 960/1460: RAMAN peak ratio; for FMHW PO4^−3): RAMAN, after ALP-driven mineralization; for GMC 1078/960: carbonate to phosphate peak ratio; for Ca-P/collagen 960/1667: phosphate to amide I peak ratio. The method, then:
(§1) ALP-driven mineralization was executed following the protocol discussed in Gungormus et al. (2008). The mineralization buffer prepared was composed of 24.4 Ca^2+ mM and 14.4 mM B-glycerophosphate made in 25 mM Tris-HCl buffer at pH 7.4, and 200 μL/well was added to a 24-well plate. Collagen-peptide samples were placed gently within the well to lay flat at the bottom. The mineralization reaction was initiated by adding FastAP (thermosensitive alkaline phosphatase), 1.4×10^−6 g/mL, and left to incubate at 37° C. for 20 min. The samples were then removed from the wells, gently rinsed in sterile-filtered water, and left to air dry overnight. Throughout this process the samples were handled in a horizontally flat manner to prevent disturbing the peptide-functionalized collagen layer on the surface of the substrate.
Demineralized dentin samples, adhesive/dentin samples (pre/post mineralization), and SC collagen on glass were imaged using a LabRAM ARAMIS Raman microscope (HORIBA Jobin Yvon, Edison, NJ, USA), equipped with a HeNe laser (2=[…], laser power=17 mW). Light micrograph images were taken using a 50× long working distance objective Olympus lens. The samples spectra were evaluated over a wavelength range of 300 cm^−1 to 1800 cm^−1 with a 15 s spectra acquisition time of 4 acquisitions per cycle and processed using LabSPEC 6 software (HORIBA Jobin Yvon, Edison, NJ, USA). Divisive Clustering Analysis (DCA) was used to classify and group respective spectra. This multivariate analysis method was integrated into the LabSPEC 6 analysis software as a Multivariate Analysis (MVA) module (powered by Eigenvector Research Inc., HORIBA Jobin Yvon, NJ, USA). A rectangular area of the surface was imaged and submitted to this multivariate analysis where a statistical pattern determined derived independent clusters to present chemically distinct regions. Average spectra are calculated per cluster which were used to provide information on particular peak parameters and component distribution in the resulting spectra. These components were analyzed for relative degree of mineralization via mineral-to-matrix ratio (MMR), inferred from the ratio of peak intensities at 960 cm^−1 (phosphate) and 1460 cm^−1 (CH2 bending), crystallinity via full width at half maximum (FWHM) from the v1 phosphate band (960 cm^−1), and the carbonate content of mineral crystallites via gradient in mineral content (GMC), based on ratio of relative carbonate (10^70 cm^−1) and phosphate (960 cm^−1) peak heights. The calcium-phosphate (Ca/P) to collagen ratio was also assessed to understand the relative thickness of the mineral formed during mineralization. This would help in comparative evaluations between the samples.
Next evaluated was the use of HABP1 to potentially direct mineralization within the adhesive/demineralized dentin hybrid layer. To do this RAMAN Divisive Clustering Analysis (DCA) was used, a hierarchical k-means clustering method which is useful for identifying the internal structure of multi-layer datasets. We mapped the most distinctive mineral composition variations associated with the collagen matrix structural variations according to their RAMAN spectra. […] The DCA method measures similarity in three parameters: ratio of 960/1460 peak (e.g., mineral-to-matrix ratio), ratio of 1078/960 (gradient mineral carbonation, GMC: carbonate to phosphate) peak, and ratio of the 960/1667 peaks (phosphate to collagen with retained amide I structure, Ca/P collagen). The spectral feature at 1460 cm^−1 is assigned to the CH2 wag for collagen, and 1667 cm^−1 is the amide I peak for the collagen used. The 960 cm^−1 peak is the v1 phosphate stretching vibration associated with the mineral and 10^78 cm^−1 is the band for v1 carbonate. The method clusters the following groups: collagen only, mineral group I, and mineral group II. […]

Assay [2] concerns the target T1, Type 1 rat tail collagen (Rattus norvegicus, UniProt P02454+P02466).
T1 construct: Collagen Type 1 solution from rat tail (3 mg/mL, C3867, 95%) was purchased from Sigma-Aldrich; purchased Sigma-Aldrich C3867; host or cells: rat tail (tissue-derived)
Kind of assay: Collagen fibril self-assembly with incorporated peptide, AFM topography fibril widths. The settings on record: peptide co-assembled with collagen (50 nanomoles in 1 mL of 3 mg/mL), drop-cast on mica. The method, then:
(§2) Grade V1 round mica, 0.21 mm thick and 12 mm in diameter, was used as the substrate surface and mounted onto a 12 mm atomic force microscopy specimen disc using STKYDOT adhesive. In 1 mL of 3 mg/mL Type 1 rat tail collagen suspension, 50 nanomoles of peptide were added. The ratio of mass collagen to mass peptide ranged from 100 wt collagen: 1 wt peptide for single domains to 100 wt collagen: 3 wt peptide for the chimeric peptide. Once peptide was dissolved and gently mixed in the collagen suspension, 150 μL was drop-cast onto the substrate surface and left to self-assemble at 4° C. for 16 h.
(§3) A Bruker Multimode 8 HR scanning probe microscope (Bruker Nano Inc., Camarillo, CA, USA) was operated in peak force tapping mode with the capability of Quantitative Nanomechanics (PeakForce-QNM) in air mode conditions (24±2° C., 40%±5% RH). This advanced testing mode was used to examine the topographical and nanomechanical property changes of the collagen-peptide samples both before and after mineralization. Tapping mode etched silicon probes, type RTESPA 525-30 (Bruker Nano Inc., Camarillo, CA, USA) with a resonant frequency of about 518 kHz, were used to acquire images (1 μm×3 μm and 5 μm×5 μm) at scan rate of 0.5 Hz with 512 pixel/line resolution. The images of the samples were recorded using NanoScope 8.15 software and analyzed using NanoScope Analysis 2.0 software (Bruker Nano Inc., Camarillo, CA, USA).
Building upon the conformational flexibility of the peptide, the CBP-HABP1 peptide was then studied for the assembly properties on the collagen fibrils on mica substrate using AFM topography image analysis. The images were acquired in tapping mode. Non-fibril features, indicated as intensity saturated regions on the surface, are acetic acid salt crystals from the evaporation of the solution in which the collagen was suspended. These features were excluded from image to prevent signal shadowing of the surface fibril assembly. […] Collagen+ (CBP-HABP1) fibrils were measured to be smaller than collagen-alone fibrils, resulting in a statistically significant difference. […]

Assay [3] concerns the target T1, Type 1 rat tail collagen. As to the kind of experiment: SEM/EDS of Ca-P deposits on peptide-incorporated collagen after ALP-driven mineralization. Type of assay: biochemical. To be noted: for average Ca—P ratio: EDS, initial mineral on peptide-incorporated collagen after 20 min ALP-driven mineralization; for mineral formation morphology on SEM images: peptide-incorporated collagen after ALP-driven mineralization. The method, then: as §2, §1
In order to examine initial intrafibrillar mineral formation and morphology and determine Ca/P ratios precipitated on the peptide-functionalized collagen surface, a Cold Field Emission Scanning […] Microscope (SEM, S-4700 model, Hitachi High-Tech America, Schaumburg, IL, USA) equipped with a silicon drift energy-dispersive detector (EDS, X-max, Oxford Instruments, Concord, MA, USA) was used via the Microscopy and Analytical Imaging Research Resource Core Laboratory (RRID:SCR_021801). Collagen-peptide samples were sputter-coated with 3 nm gold using a Quorum sputter coating system (Q150, Quorum, Laughton, East Sussex, UK). SEM imaging was completed at an acceleration voltage of 10 kV at ultra-high resolution operating mode and EDS measurements were made at 10 kV under normal operating mode to preserve the integrity of the collagen-peptide layer and prevent burning during signal capture. EDS analysis was performed through AZtec software (X-MaxN, Oxford Instruments, Concord, MA, USA).
The composition and morphology of the Ca—P deposits formed on collagen samples were examined using scanning electron microscopy (SEM) with energy dispersive X-ray analysis (EDS). […] The EDS results validated the finding of Ca—P mineral isomorphs on the peptide-incorporated collagen platforms. The calcium/phosphate ratios were calculated to examine compositional differences. […] Whereas collagen+ (CBP) and collagen+ (CBP-HABP1) had comparatively lower average Ca—P ratios at 1.30 and 1.25, respectively. These values are similar to the molar ratio of octacalcium phosphate, which is around 1.33, and amorphous calcium phosphate (ACP), which is roughly 1.50 [54-57].

In assay [4] the target is T1, Type 1 rat tail collagen. Kind of assay: PeakForce-QNM AFM modulus mapping of peptide-functionalized collagen pre/post ALP-driven mineralization. To be noted: peptide incorporated into collagen. As to the method: as §2, §1, §3
Building on the observed effects of the chimeric peptide on the collagen, next examined was if there was a change on the mechanical properties of the collagen due to the peptide presence. Quantitative modulus mapping was executed via PeakForce-QNM AFM to observe the changes in the elastic modulus distribution on the surfaces. The elastic modulus was previously established to be derived by using the Derjaguin-Muller-Toropov (DMT) model, and is thus reported as the DMT modulus. […]

Assay [5] deals with Collagen Type 1 solution from rat tail (3 mg/mL, C3867, Sigma-Aldrich) (rat, UniProt P02454 152-1207; P02466 86-1125). Kind of assay: cell-based or functional assay.
Collagen Type 1 solution from rat tail (3 mg/mL, C3867, Sigma-Aldrich), sequence (P02454 152-1207 limits assumed, chain 1 of 2): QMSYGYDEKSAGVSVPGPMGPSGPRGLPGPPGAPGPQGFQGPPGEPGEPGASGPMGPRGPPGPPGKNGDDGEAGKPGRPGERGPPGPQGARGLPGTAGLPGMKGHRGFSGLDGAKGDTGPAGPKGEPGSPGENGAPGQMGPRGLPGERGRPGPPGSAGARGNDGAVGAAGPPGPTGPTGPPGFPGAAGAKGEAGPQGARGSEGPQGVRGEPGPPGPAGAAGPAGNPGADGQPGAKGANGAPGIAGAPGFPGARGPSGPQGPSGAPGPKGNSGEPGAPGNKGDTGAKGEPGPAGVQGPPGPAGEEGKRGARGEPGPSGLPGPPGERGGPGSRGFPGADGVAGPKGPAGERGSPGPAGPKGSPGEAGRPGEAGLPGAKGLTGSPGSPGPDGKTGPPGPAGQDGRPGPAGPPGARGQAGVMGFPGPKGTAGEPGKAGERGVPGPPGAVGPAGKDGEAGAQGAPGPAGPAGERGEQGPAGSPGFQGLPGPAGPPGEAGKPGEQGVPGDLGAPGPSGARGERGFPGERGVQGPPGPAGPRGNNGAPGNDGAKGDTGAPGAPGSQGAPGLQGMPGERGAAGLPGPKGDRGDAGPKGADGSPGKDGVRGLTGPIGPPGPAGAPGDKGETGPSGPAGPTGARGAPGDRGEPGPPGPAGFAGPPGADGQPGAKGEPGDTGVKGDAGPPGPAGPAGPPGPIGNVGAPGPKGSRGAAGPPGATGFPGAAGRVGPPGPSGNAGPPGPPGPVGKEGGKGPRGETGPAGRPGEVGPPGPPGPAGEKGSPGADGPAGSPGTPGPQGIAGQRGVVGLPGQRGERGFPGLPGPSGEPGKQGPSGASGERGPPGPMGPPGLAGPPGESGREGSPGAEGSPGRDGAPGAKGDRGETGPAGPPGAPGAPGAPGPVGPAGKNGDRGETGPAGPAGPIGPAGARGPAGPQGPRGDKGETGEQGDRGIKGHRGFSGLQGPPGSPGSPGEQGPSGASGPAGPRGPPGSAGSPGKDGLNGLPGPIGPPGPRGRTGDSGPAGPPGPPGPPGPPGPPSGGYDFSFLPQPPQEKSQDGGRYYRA
Collagen Type 1 solution from rat tail (3 mg/mL, C3867, Sigma-Aldrich), sequence (P02466 86-1125 limits assumed, chain 2 of 2): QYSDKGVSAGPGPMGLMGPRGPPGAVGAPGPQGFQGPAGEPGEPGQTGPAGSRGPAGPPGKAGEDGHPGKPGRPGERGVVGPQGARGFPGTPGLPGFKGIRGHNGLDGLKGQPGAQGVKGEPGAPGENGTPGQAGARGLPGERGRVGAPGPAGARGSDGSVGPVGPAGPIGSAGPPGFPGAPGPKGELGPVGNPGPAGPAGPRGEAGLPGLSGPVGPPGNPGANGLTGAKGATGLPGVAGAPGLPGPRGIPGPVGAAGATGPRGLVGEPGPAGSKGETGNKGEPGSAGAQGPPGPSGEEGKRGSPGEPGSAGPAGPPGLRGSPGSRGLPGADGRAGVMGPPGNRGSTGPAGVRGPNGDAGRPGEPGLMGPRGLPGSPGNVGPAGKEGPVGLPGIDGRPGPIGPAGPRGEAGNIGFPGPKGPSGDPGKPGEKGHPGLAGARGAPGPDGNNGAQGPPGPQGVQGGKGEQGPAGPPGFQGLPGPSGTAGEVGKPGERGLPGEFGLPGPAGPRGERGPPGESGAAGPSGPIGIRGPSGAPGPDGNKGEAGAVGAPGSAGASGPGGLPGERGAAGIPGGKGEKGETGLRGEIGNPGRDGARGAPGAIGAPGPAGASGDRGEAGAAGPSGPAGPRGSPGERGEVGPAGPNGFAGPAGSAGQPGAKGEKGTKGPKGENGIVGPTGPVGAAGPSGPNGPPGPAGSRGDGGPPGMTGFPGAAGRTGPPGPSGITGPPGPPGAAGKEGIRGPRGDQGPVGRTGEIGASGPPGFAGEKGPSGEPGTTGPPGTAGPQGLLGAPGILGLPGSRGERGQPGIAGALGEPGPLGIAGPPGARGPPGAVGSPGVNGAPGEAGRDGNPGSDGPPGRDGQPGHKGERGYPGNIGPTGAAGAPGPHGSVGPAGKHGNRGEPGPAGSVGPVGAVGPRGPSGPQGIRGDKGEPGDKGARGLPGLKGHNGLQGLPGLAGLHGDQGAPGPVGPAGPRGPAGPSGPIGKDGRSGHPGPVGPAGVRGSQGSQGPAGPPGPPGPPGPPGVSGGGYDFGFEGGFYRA

Where “and” joins values, the source holds several entries; their conditions need not be identical. Equal entries are not always repeated. No end group written: not given here.

T1 sequence (P02466 86-1125 limits assumed): as the sequence (P02466 86-1125 limits assumed, chain 2 of 2) above
T1 sequence (P02454 152-1207 limits assumed): as the sequence (P02454 152-1207 limits assumed, chain 1 of 2) above

Take MLPHHGA [HABP1]: in assay [1] (DCA class HABP1 Mineral II), the “MNRp 960/1460” value is given as 3.59, the “FMHW PO4^−3)” value is on record as 35.6, the “GMC 1078/960” value is recorded as 0.22 and the “Ca-P/collagen 960/1667” value was found to be 13.2. In addition, in assay [1] (DCA class HABP1 mineral I), the “MNRp 960/1460” value is given as 2.88, the “FMHW PO4^−3)” value is on record as 39.6, the “GMC 1078/960” value amounted to 0.31 and the “Ca-P/collagen 960/1667” value is given as 23.9. Besides, the “mineralization shown with a RAMAN peak consistent with CaPO4 formation (960 cm^−1)” value in assay [1] (adhesive/dentin specimen, compared with mineralization procedure without peptide) was “mediates mineralization”. Moreover, the Mean fibril width in assay [2] is 129.9 nm and 129.90 nm. Moreover, in assay [3], the “average Ca—P ratio” value amounted to 1.41 and the “mineral formation morphology on SEM images” value is on record as “more extensively branched columnar mineral growth as well as plate-like mineral growth”.
Turning to TKKLTLRT [CBP], the Mean fibril width in assay [2] is 121.4 nm and 121.40 nm. Besides, the “DMT (elastic) modulus” value in assay [4] (after 20 min ALP-driven mineralization) was 6.52 GPa. The “DMT (elastic) modulus” value in assay [4] (pre-mineralization) came out at 5.16 GPa. Further, in assay [3], the “average Ca—P ratio” value was 1.30 and the “mineral formation morphology on SEM images” value was “branched columnar mineral growth”.
On to TKKLTLRTAPAMLPHHGA [bifunctional peptide TKKLTLRT-APA-MLPHHGA (CBP-HABP1)], for which, in assay [5], the “fibril width, Coefficient of variation, AFM topographical imaging” value (“fibril width, Coefficient of variation” for short) stood at 32.1 and the “fibril width, Standard Deviation, AFM topographical imaging” value (“fibril width, Standard Deviation” for short) came out at 26.5 nm.
As to MLPHHGA-OH [hydroxyapatite-binding peptide (HABP1), MLPHHGA], in assay [5], the “fibril width, Coefficient of variation” value is 67.5 and the “fibril width, Standard Deviation” value was determined as 87.6 nm.
Turning to TKKLTLRT-OH [collagenase-collagen-binding peptide (CBP), TKKLTLRT], in assay [5], the “fibril width, Coefficient of variation” value turned out to be 17 and the “fibril width, Standard Deviation” value amounted to 20.7 nm.

Values taken from patent publication US20260224446A1, “BIFUNCTIONAL PEPTIDES USEFUL FOR COLLAGEN INTRAFIBRILLAR MINERALIZATION” (University of Kansas, priority 2023, published 2026).
